Test results reported in patent US20060205037A1 (published 2006).

Molecular target: T1, rat GLP-1 receptor (CHO cells transfected with the rat GLP-1 receptor) (rat, UniProt P32301 22-463)
T1 sequence (looked up): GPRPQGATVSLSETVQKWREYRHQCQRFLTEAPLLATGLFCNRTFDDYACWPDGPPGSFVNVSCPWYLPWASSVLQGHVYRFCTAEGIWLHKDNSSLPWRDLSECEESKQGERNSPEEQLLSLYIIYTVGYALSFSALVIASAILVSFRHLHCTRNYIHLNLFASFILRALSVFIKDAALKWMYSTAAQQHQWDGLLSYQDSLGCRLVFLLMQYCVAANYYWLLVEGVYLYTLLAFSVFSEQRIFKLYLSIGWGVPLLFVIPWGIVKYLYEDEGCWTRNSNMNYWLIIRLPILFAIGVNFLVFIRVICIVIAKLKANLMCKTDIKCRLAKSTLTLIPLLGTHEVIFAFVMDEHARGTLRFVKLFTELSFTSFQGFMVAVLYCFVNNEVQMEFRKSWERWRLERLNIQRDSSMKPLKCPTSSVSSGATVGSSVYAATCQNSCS
Experiment: cell-based or functional assay

B1: pREX0558: GLP-1 (7-37;A8G;G22E;K34A) fused to the N-terminus of transferrin with PEAPTD and IgG hinge linkers (other)
chain: HGEGTFTSDVSSYLEEQAAKEFIAWLVAGRGPEAPTDVEPKSSDKTHTSPPSPAPELLGGPSVPDKTVRWCAVSEHEATKCQSFRDHMKSVIPSDGPSVACVKKASYLDCIRAIAANEADAVTLDAGLVYDAYLAPNNLKPVVAEFYGSKEDPQTFYYAVAVVKKDSGFQMNQLRGKKSCHTGLGRSAGWNIPIGLLYCDLPEPRKPLEKAVANFFSGSCAPCADGTDFPQLCQLCPGCGCSTLNQYFGYSGAFKCLKDGAGDVAFVKHSTIFENLANKADRDQYELLCLDNTRKPVDEYKDCHLAQVPSHTVVARSMGGKEDLIWELLNQAQEHFGKDKSKEFQLFSSPHGKDLLFKDSAHGFLKVPPRMDAKMYLGYEYVTAIRNLREGTCPEAPTDECKPVKWCALSHHERLKCDEWSVNSVGKIECVSAETTEDCIAKIMNGEADAMSLDGGFVYIAGKCGLVPVLAENYNKADNCEDTPEAGYFAVAVVKKSASDLTWDNLKGKKSCHTAVGRTAGWNIPMGLLYNKINHCRFDEFFSEGCAPGSKKDSSLCKLCMGSGLNLCEPNNKEGYYGYTGAFRCLVEKGDVAFVKHQTVPQNTGGKNPDPWAKNLNEKDYELLCLDGTRKPVEEYANCHLARAPNHAVVTRKDKEACVHKILRQQQHLFGSNVADCSGNFCLFRSETKDLLFRDDTVCLAKLHDRNTYEKYLGEEYVKAVGNLRKCSTSSLLEACTFRRP
  cAMP assay EC50 (fermentation F0191): 5.9 nM
